# Reference: US7960349B2 (Bristol-Myers Squibb Company, priority 2006, dated 2011)
# *1 amine or outer side, *2 acyl side, *3 side chain or, on linkers, in order; H or OH if unused. Primed or numbered codes have the meaning given here. Where no end group is shown, it is not given here. [ ]: non-standard residue; d: D form. The star is where a group is joined. X1 = 4‑(2′-methylphenyl)‑3‑pyridylalanine, Cc1ccccc1-c1ccncc1C[C@H](N[*:1])C(=O)[*:2]; Bip(2′-Et-4′-OH-5′-I) = CCc1cc(O[*:3])c(I)cc1-c1ccc(C[C@H](N[*:1])C(=O)[*:2])cc1; Phe(4-(2-Et-4-HO-Ph)) = CCc1cc(O)ccc1-c1ccc(C[C@H](N)C(=O)O)cc1; IMeOp = 3-(1H-imidazol-4-yl)-2-methoxypropanoyl; αMePhe(2-F) = C[C@](N)(Cc1ccccc1F)C(=O)O; αMeP = C[C@@]1(C(=O)O)CCCN1; Moc = COC(=O)*
# Assays:
# Human GLP-1 Receptor = molecular target: T1, Human GLP-1 Receptor (Homo sapiens, UniProt P43220); assay: Cyclic AMP determination in CHO cells expressing human GLP-1 receptor; assay type: cell-based; conditions: for Emax: CHO, percent of maximal GLP-1 stimulated activity; for Emax / Mean Hill: human GLP-1 receptor
# T1 construct: Full-length human glucagon-like peptide 1 receptor was stably expressed in CHO-K1 cells; expressed in transfected cells; host or cells: CHO-K1 (clone CHO-GLP1R-19)
# T1 sequence (P43220 24-463): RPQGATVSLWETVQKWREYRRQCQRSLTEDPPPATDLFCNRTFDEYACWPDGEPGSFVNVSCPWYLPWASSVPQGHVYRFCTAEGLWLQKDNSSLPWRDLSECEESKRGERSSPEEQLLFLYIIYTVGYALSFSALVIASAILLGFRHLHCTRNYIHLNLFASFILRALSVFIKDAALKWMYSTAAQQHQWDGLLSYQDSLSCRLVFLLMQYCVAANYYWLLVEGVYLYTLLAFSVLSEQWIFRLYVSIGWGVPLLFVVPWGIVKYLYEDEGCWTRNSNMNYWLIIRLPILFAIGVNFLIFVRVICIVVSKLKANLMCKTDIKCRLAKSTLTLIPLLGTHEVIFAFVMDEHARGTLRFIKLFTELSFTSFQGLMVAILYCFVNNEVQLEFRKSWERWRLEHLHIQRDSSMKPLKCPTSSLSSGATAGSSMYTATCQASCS
# Description: (§1) CHO-GLP-1R-19 cells (20,000 in 100 μl of media) were plated into each well of a 96-well tissue culture microtiter plate and incubated overnight in a 5% CO2 atmosphere at 37° C. On the day of the assay, cells were washed once with 100 μl of phosphate-buffered saline (PBS). A Biomek 2000 was used to serially dilute all peptides prior to beginning the assay. Serial dilutions were carried out in 100% DMSO.
# (§2) 50 μl of each cAMP standard was added by hand and 70 μl of mix reagent (Amersham cAMP SPA kit) was added using the multidrop. […] This standard curve was used to convert CPM to pmol of cAMP.
# (§3) Cell plates and peptide plates were loaded onto the Platemate. The media was aspirated from the wells and discarded. 100 uL per well of the peptide/buffer mixture were then added from the peptide plates to initiate the assay. After 30 min. of incubation the peptide/buffer was removed and 50 uL of the lysis reagent 1 solution was added per well. The plate was kept for one hour at RT or overnight if refrigerated and sealed.
# (§4) Dose dependence for Compounds was determined at half-log concentrations in duplicate. […] A standard curve was determined using known amounts of cyclic AMP. […] The data were analyzed by nonlinear regression curve fitting (4 parameter sigmoidal dose-response curve) to determine the EC50 of the compounds.
# Mouse GLP-1 Receptor [1] = molecular target: T2, Mouse GLP-1 Receptor (Mus musculus, UniProt O35659); assay: Stimulation of cAMP synthesis in CHO cells expressing mouse GLP-1 receptor; assay type: cell-based; conditions: for Emax: CHO, percent of maximal GLP-1 stimulated activity
# T2 construct: expressed in transfected cells; host or cells: CHO cells
# T2 sequence (O35659 22-463): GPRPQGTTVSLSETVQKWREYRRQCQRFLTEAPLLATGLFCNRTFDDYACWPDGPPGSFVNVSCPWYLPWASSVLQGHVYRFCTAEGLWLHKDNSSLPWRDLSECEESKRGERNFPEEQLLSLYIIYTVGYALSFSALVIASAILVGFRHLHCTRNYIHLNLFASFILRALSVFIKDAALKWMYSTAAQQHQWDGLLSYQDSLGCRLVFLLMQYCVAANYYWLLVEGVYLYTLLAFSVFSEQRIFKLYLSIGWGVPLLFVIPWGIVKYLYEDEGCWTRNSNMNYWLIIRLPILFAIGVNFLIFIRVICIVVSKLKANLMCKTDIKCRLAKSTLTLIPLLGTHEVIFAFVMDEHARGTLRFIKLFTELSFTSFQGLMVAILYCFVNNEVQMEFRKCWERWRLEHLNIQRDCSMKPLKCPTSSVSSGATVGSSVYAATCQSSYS
# Description: as §1, §2, §3, §4
# Mouse GLP-1 Receptor [2] = molecular target: T3, Mouse GLP-1 Receptor (mouse, UniProt O35659 22-463); assay: cell-based or functional assay
# T3 sequence (looked up): T2 sequence (O35659 22-463)
# [3] = molecular target: Full-length human glucagon-like peptide 1 receptor (human, UniProt P43220 24-463); assay: cell-based or functional assay
Molecule,Emax (Human GLP-1 Receptor) [%],Mean Hill (Human GLP-1 Receptor),Mean Hill (Mouse GLP-1 Receptor [1]),Emax (Mouse GLP-1 Receptor [1]) [%],EC50 (Human GLP-1 Receptor) [nM],"Mean EC50 (nM), stimulation of cAMP synthesis in CHO cells (Mouse GLP-1 Receptor [2]) [nM]","Mean Emax (%), stimulation of cAMP synthesis in CHO cells (Mouse GLP-1 Receptor [2]) [%]","Mean EC50 (nM), stimulation of cAMP synthesis in CHO cells [3] [nM]","Mean Emax (%), stimulation of cAMP synthesis in CHO cells [3] [%]"
"CCc1cc(O)ccc1-c1ccc(C[C@H](NC(=O)[C@H](CC(=O)O)NC(=O)[C@H](CO)NC(=O)[C@@H](NC(=O)[C@](C)(Cc2ccccc2F)NC(=O)[C@@H](NC(=O)CNC(=O)[C@H](CCC(=O)O)NC(=O)[C@]2(C)CCCN2C(=O)C(Cc2c[nH]cn2)OC)[C@@H](C)O)[C@@H](C)O)C(=O)N[C@@H](Cc2ccc(-c3ccccc3C)nc2)C(N)=O)cc1 (single isomer, unassigned) [SEQ ID NO: 173]",95.6,2.6,1.4,99.7,–,–,–,–,–
"CCc1cc(O)ccc1-c1ccc(C[C@H](NC(=O)[C@H](CC(=O)O)NC(=O)[C@H](CO)NC(=O)[C@@H](NC(=O)[C@](C)(Cc2ccccc2F)NC(=O)[C@@H](NC(=O)CNC(=O)[C@H](CCC(=O)O)NC(=O)[C@]2(C)CCCN2C(=O)C(Cc2c[nH]cn2)OC)[C@@H](C)O)[C@@H](C)O)C(=O)N[C@@H](Cc2ccc(-c3ccccc3C)nc2)C(N)=O)cc1 (single isomer, unassigned) [SEQ ID NO: 174]",–,2.7,2.1,–,–,–,–,–,–
"CCc1cc(O)ccc1-c1ccc(C[C@H](NC(=O)[C@H](CC(=O)O)NC(=O)[C@H](Cc2c[nH]cn2)NC(=O)[C@@H](NC(=O)[C@](C)(Cc2ccccc2F)NC(=O)[C@@H](NC(=O)CNC(=O)[C@H](CCC(=O)O)NC(=O)[C@]2(C)CCCN2C(=O)C(Cc2c[nH]cn2)OC)[C@@H](C)O)[C@@H](C)O)C(=O)N[C@@H](Cc2ccc(-c3ccccc3C)nc2)C(N)=O)cc1 (single isomer, unassigned) [SEQ ID NO: 175]",105,2.8,2.7,100,–,–,–,–,–
"CCc1cc(O)ccc1-c1ccc(C[C@H](NC(=O)[C@H](CC(=O)O)NC(=O)[C@H](Cc2c[nH]cn2)NC(=O)[C@@H](NC(=O)[C@](C)(Cc2ccccc2F)NC(=O)[C@@H](NC(=O)CNC(=O)[C@H](CCC(=O)O)NC(=O)[C@]2(C)CCCN2C(=O)C(Cc2c[nH]cn2)OC)[C@@H](C)O)[C@@H](C)O)C(=O)N[C@@H](Cc2ccc(-c3ccccc3C)nc2)C(N)=O)cc1 (single isomer, unassigned) [SEQ ID NO: 176]",–,3.1,1.9,–,–,–,–,–,–
CCc1cc(O)c(I)cc1-c1ccc(C[C@H](NC(=O)[C@H](CC(=O)O)NC(=O)[C@H](CO)NC(=O)[C@@H](NC(=O)C(C)(Cc2ccccc2F)NC(=O)[C@@H](NC(=O)CNC(=O)[C@H](CCC(=O)O)NC(=O)C2(C)CCCN2C(=O)[C@H](Cc2c[nH]cn2)NC(=O)OC)[C@@H](C)O)[C@@H](C)O)C(=O)N[C@@H](Cc2ccc(-c3ccccc3C)nc2)C(N)=O)cc1 (some centres unmarked) [SEQ ID NO: 164],97.2,1.5,2.7,103,0.01,–,–,–,–
Moc-H[αMeP]EGT[αMePhe(2-F)]TSD[Phe(4-(2-Et-4-HO-Ph))][X1]-NH2 [Compound of SEQ ID NO: 158],–,–,–,–,–,0.191,101,0.018,101
[IMeOp][αMeP]EGT[αMePhe(2-F)]THD[Phe(4-(2-Et-4-HO-Ph))][X1]-NH2 (also: IMeOp configuration (R or S) not determined) [Compound of SEQ ID NO: 175 (or 176)*],–,–,–,–,–,0.084,100,0.03,105
[IMeOp][αMeP]EGT[αMePhe(2-F)]TSD[Phe(4-(2-Et-4-HO-Ph))][X1]-NH2 (also: IMeOp configuration (S or R) not determined) [Compound of SEQ ID NO: 174 (or 173)*],–,–,–,–,–,0.273,105,0.024,104
[IMeOp][αMeP]EGT[αMePhe(2-F)]TSD[Phe(4-(2-Et-4-HO-Ph))][X1]-NH2 (also: IMeOp configuration (R or S) not determined) [Compound of SEQ ID NO: 173 (or 174)*],–,–,–,–,–,0.114,99.7,0.018,95.6
Moc-H[αMeP]EGT[αMePhe(2-F)]TSD[Bip(2′-Et-4′-OH-5′-I)][X1]-NH2 [Compound of SEQ ID NO: 164],–,–,–,–,–,0.055,103,0.01,97.2
[IMeOp][αMeP]EGT[αMePhe(2-F)]THD[Phe(4-(2-Et-4-HO-Ph))][X1]-NH2 (also: IMeOp configuration (S or R) not determined) [Compound of SEQ ID NO: 176 (or 175)*],–,–,–,–,–,0.126,105,0.03,95.8
